{"source": "patent US20260193255A1", "about": "“7-AZAINDOLE COMPOUNDS, PREPARATION METHOD THEREFOR, AND USE THEREOF” (Fudan University, priority 2022, published 2026)", "origin": "cited, not measured here", "molecules": {"B1": {"name": "Bimagrumab: antibody inhibitor of ActRIIB under development by Novartis (antibody, chains of the INN, looked up, V domains shown)", "VH": "QVQLVQSGAEVKKPGASVKVSCKASGYTFTSSYINWVRQAPGQGLEWMGTINPVSGSTSYAQKFQGRVTMTRDTSISTAYMELSRLRSDDTAVYYCARGGWFDYWGQGTLVTVSS", "VL": "QSALTQPASVSGSPGQSITISCTGTSSDVGSYNYVNWYQQHPGKAPKLMIYGVSKRPSGVSNRFSGSKSGNTASLTISGLQAEDEADYYCGTFAGGSYYGVFGGGTKLTVL"}}, "test_system": "cachectic patients", "details": "30 mg/kg, Phase II; cited from earlier work"}
{"molecule": "B1", "values": [{"measurement": "Increase of muscle volume", "value": "5.0-7.8%"}]}
